Reference: the nanobody polyreactivity screen of Harvey et al. (2022)

Assay: yeast display, Sf9 membrane polyspecificity reagent, FACS + sequencing; frameworks hold sequencing errors
Procedure, shortened: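 Nanobodies came from a synthetic yeast display library in Saccharomyces cerevisiae BJ5465, induced with galactose for 36–48 hours and stained for 1 hour at 4 °C with 10% biotinylated, detergent-solubilized Sf9 membrane reagent. Cells were enriched on streptavidin microbeads and then FACS-sorted, with low and high (top ~1%) gates set on anti-HA fluorescence for expression and streptavidin fluorescence for reagent binding. Each polyreactivity label reflects the gate a clone came from. Genes were amplified by colony PCR, sequenced by MiSeq 2 × 250 and filtered by CDR length.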

Row | Sequence | polyreactivity (PSR sort gate)
1 | QVQLVETGGGLVQAGGSLRLSCAASGSTFYHNAMGWYRQAPGKERELVAAISIGGGRTYYADSVKGRFTISRDNAKNTVYLQMNSLKPEDTAVYYCAAGSPAVYGRGFNYWGQGTQVTVSS | low polyreactivity
2 | QVQLVESGVGLVQSGGSLRLSCAASGFSIEPYAMGLYRQAPGKERELVAAISWSGGSTYYADSVKGRFTISRDNAKNTVYLQMNSLKPEDTAVYYCAAEWYNSAYYEYDYWGQGTQVTVST | high polyreactivity
3 | QVQLEESGVGLVQAGGSLRLSCAASGRTFLRNAMGWYRQAPGKEMELVAAISWRGGSTYYADSVKGRFTISRDNAKNTVYLEMNSLKPEDTAVYYCNTFPSQYLWYDYWGQGTQVNVSS | high polyreactivity
4 | QVQLVESGGGLVQAGGSLRLSCAASGSIFFYNAMGWYRQAPGKERELVAAITTRGGSTYYADSVKGRFTISRDNAKNTVYLQMNSLKPEDTAVYYCARSSRGKLDYWGQGTQVTVSS | low polyreactivity
5 | QVQRVESGGGLVQAGGSLRLSCAASGNTFTVNAMGWYRQAPGKERELVAAINYSGGSTYYADSVKGRFTISRDNAKNTVYLQKNSLKPEDTAVYYCAASPDELLYEMYYWGQGTQVTVSS | low polyreactivity
6 | QVQLVESGGGLVQAGGSLRISCAASGRIFPFYAMGWYRQAPGKDRELVAAIRSGGGSTYYADSVKGRFTISRDNAKKTVYLQRNSLKPEDTAVYYCTARGRLGSAGRYNYWGQGTQVTVSS | high polyreactivity
7 | QVQLVESGGGLVQSGASLRLSCAASGLIIGLYALGWYRQAPGKERELVAAISDNGARTYYADSVKGRFTISRDNAKNTVYLQMNSLKPEDTAVYYCARDQSYHYNYWGQGTQVTVSS | low polyreactivity
8 | QVQLVESGGGLVQAGGSLRLSCAASGYTFWRYAMGWYRQAPGKERELVAAISQSGGRTYYADSVKGRFTISRDNAKNTVYLQMNSLKPEDTAVYYCATSSTQGDDYWGQGTQVTVSS | high polyreactivity
9 | QVQLVESGGGLVQAGGSLRLSCAASGSTFRPNAMGWYRPAPGKDRELVAAISWSGRSTYYADSVKGRFTISRDQAKTTVYLQMNSLTPQDTAVADCAKELYAGRTDTRTRYDYWGQGTQVTVSS | high polyreactivity
10 | QVQLVESGGGLVQAGCSLRLSSAASGIIFSHNAMGWYRQAPGKERELVDDIDWSGGSTYYADSVKGRFTISRDNAKNTVYLQMNSLKPEDTAVYYCAAEYRDYVPVNDTGDYWGQGTQVTVSS | low polyreactivity
11 | QVQLVESGGGLVQAGGSLRLSCAASGIIFDSYAMGWYRQAPGKERELVAAITSDSGRTYYADSVKGRFTISRDNAKNTVYLQMNSLKPEDTAVYYCAKRWDGPYDYWGHGTQVTVSS | low polyreactivity
12 | QVQLVESGGGLVQAGGSLRLSCAASGFTFYLYAMGWYRQAPGKERELVAAISSGGSTNYADSVKGRFTISRDNAKNTVYLQMNSLKPEDTAVYYCNKRYRRATWWITAYDHWGQGTQVTVSS | high polyreactivity
13 | QVQLVESGGGLVQAGGSLRLICAASGSTFYEYAMGWYRQAPGKERELVAAISSNGARTYYADSVKVRFTISRDNAKNTVYLQMISLKPEDTAVYYCALVYRYAHTKYDYWGQGTQVTVSS | high polyreactivity
14 | QVQLVESGGGLVQAGGSLRLSCAASGSIFRWYAIGWYRQAPGKERELVATICWSTGTTYYADSVKGRFTISRDNAKNTVYLQMNSLKPEDTAVYYCAKVSTYRSSYSLKSGYGNDYWGQGTQVTVSS | low polyreactivity
15 | QVHHVESGGGLVQAGGSLRLSCAASGFIFTYNAMGWYRQAPGKERELVAAIRSGTNTSYADSVKGRFTISRDNAKNTVYLQMNSLKPEDTAVYYCNREVPEYQGFITPDGYWGQGTQVTVSS | low polyreactivity
16 | QVQLVASGGGLVQAGGTLRLSCAASGRIFGRYGMGWYSQAPGKERELVAAISRSGDRTYYADSVKGRFTISRDNAKNTVYLPMNSLKPEDTAVYYCAAYSYRYDYWGQGTQVTVAS | high polyreactivity
17 | QVQLVESGGGLVQAGGSLRLSCAASGSIFSVYAMGWYRQAPGKERELVAAINWDGTSTDYADSVKGRFTISRDNAKNTVYLQMNSLKPEDTAVYYCAAEGHTAFLVYRVSPLQYDYWGQGTQVTVSS | low polyreactivity
18 | QVQLVEAGGGLVLAGGSLRLSCAASGIIFVSYAMGWSRQAPGKERELVASISWSGGRTYYADSVKARFTISRDNAKNTVYLQMNSLKPEDTAVYFCAAAYRTRSGVRRYPWFNYWGQGTQVTVSS | high polyreactivity
19 | QVQLVESGGGLVQAGGSLRLSCAASGSIFSLYAMGWYRQAPGKERELVATISKSGGSTYYADSVKGRFTISRDNAKNTVYLQMNSLKPEDTAVYYCAARLTYTGGQGAYDYWGQGTQVTVSS | high polyreactivity
20 | QVQLQESVGGLVQACGSQRLICAASGYIFSHQYMGCYRQAPGKERELVASMSPGATTNYADRVKGRFTISRDNAKNTVYLQMNSLKTEDTAVYYYAVYQILDRRLSYWGQGTQVTVSC | high polyreactivity
21 | QVQLVESGGRLVQAGGSLRLSCAASGTFDLSAMGWYSQAPGKERELVAAITYRGDTTYYADSVKGRFTISRDNAKNTVYLQMNSMKPEDTAVYYCAAEWYYQFSSWYDYWGQGSQVTVSS | high polyreactivity

Row | Sequence | polyreactivity (PSR sort gate)
22 | QVQLVESGGGLVQAGGSLRLSCAASGLTFDGYAKGWYRPAPGKERELVAAISSSSGRTYYADSVKGRFTISRDNAKNTVYLQMNSLKPEDTEVYYCNAVTTGVYKDYYYWGQGTQVTVSS | high polyreactivity
23 | QVQLVESGGGLVQAGGSLRLSCAASGSIFPINARGWYREAPGKERELVAVITSGGGGTYYADSVKGRFTISRDNAKNTVYLQMNCLTPEDTAVYYCAKRLSRKWQKFGYWGQGTQVTVSS | low polyreactivity
24 | QVQLVESGGGLVQAGGTLRLSSAPTGSNFSAYAKGWYREAPGKERELVAAISTSGYTNYADSVKGRFTISRDKALNTVYLQMNSLKPEDTAVSYCAADRDYGDGTAGYGYEFDYWGQGTQVTVSS | low polyreactivity
25 | QVQLVESGGGLVQAGGSLRLSCAAAGSIFYYNAMGWYRQAPGKERELVASIRAHGGNTYYADSVKGRFTISRDNAKNTVYLQMNSLKPEDTAVYYCAKESRYAHLYYYWGLGTQVTVSS | low polyreactivity
26 | QVQLVESGGGLVQAGGSLRLSCAASGRTFNRNAMGWYRQAPGKERELVAAISWGGSRTYYADSVKGRFTISRDNAKNTVYLQMNSLKPEDTAVYYCAVDGFRGRSHGANDYWGQGTQVTVSS | high polyreactivity
27 | QVQLVESGGGLVQAGGSLRLSCAASGFIFPYYAMGWYRQAPGKERELVATITSSGGSTYYADSVKGRFTISRDNAKNTVYLQMNSLKPEDTAVYYCAARRRYKYYGSRYDYWGQGTQVTVSS | high polyreactivity
28 | QVQLVESGGGLVQAGGSLRLSCAASGSIFLNYAMGWYRQAPGKERELVAAISYRVGRTYYADSVKGRFTISRDNAKNTVYLQMNSLKPVDTAVYYCAADSRSPGNDYWGQGTQVTVSS | high polyreactivity
29 | QVQLVESGGGLVQAGGSLRLSCAASGRTFRRYAMGWYRQAPGKEREFVAAIRYSGGNTYYADSVKGRFTISRDNAKNTVYLQMNSLKPEDTAVYYCAARTYGKYRYSTYYYWGQGTQVTVSS | low polyreactivity
30 | QVQLVESGGGLVQAGGSLRLSCAASVYAMGWYRQAPGKERELVAAITDSGSTNYADSVKGRFTISRDNAKNTVYLQMNTLKPEDTAVYYCNADPYYATGSWARLPLYQYDYWGQGTQVTVSS | low polyreactivity
31 | QVQLVESGGGLVQEGGSLRLSCAASGIIFLENAMGWYRQAPGKERELVAGISSGGNTNYADSVKARFTISRDNAKNTVYLHMNSLKPEDTAVYYCNARCHRAVPGDELGYWGQGTQLTVSS | low polyreactivity
32 | QVQLVESGGGLVQAGGSLRLSCAASGNTINVNTMGWYRQAPGKERDLVAAISKRGGSTYYADSVKGRFTISRDNAKNTVYLQMNSLKPEDTAVYYCDKQVSLPRYHYGSAPYGYWGQGTQVTVSS | high polyreactivity
33 | QVQLVESGGGLVQAGGSLRLSCAASGSTFGRYTMGWYRQAPRKERELVAAITSGGGSTYYADSVKGRFTISRDNAKNTVYLQMNSLKPEDTAVYYCAARSLVQDHAYGYNYWGQGTQVTVSS | low polyreactivity
34 | QVQLVESGGGLVQAGGSLRLSCAASGRIFWYYAMGWYRQAPGKERELVATISSRSGSTYYADSVKGRFTISRDNAKNTVNLQMNSLKPEDTAVYYCAAGTPYYLGYRHNYWGQGTQVTVSS | high polyreactivity
35 | QVQLVESGGGLVQAGGSLRLSCAASGSTFKRYAMGWYRQAPGKERELVAAINRSGTSTYADSVKGRFTISRDNAKNTVYLQMNSLKPEDSAVYYCARYYAYLRVKYDYWGQGTQVTVSS | high polyreactivity
36 | QVQLVESGGGLVQAGGSLRLSCASSGITFGRNTMGWYRQAPGKERELVAAIDSGGNTYADSVKGRFTISRDNAKNTVYLQMNSLKPEDTAVYYCDVDGGEFSSYGYWGQGTQVTVSS | low polyreactivity
37 | QFQLEESGGGLVQAGGSLRLSCAASGSIFKGYTMGWYRQAPRKVREFVASMSRRGGSTYYADSVKGRFTISRDYAKNTVYLQMNSLKPEDTAVYYCAKDYGKAYDDWGQGTQVTVSS | high polyreactivity
38 | QVQLHESGGGMVQAGGSLRLSCAASGTISYAGPMGWYRQAPGKEREFVAGIGVGSNTNYADSVKGRYTIIRDNAKNTVYLKMNSLKPEDTAVYYCGVGVYAQLGRPYWGQGTQVTVSS | low polyreactivity
39 | QVQLVDSGGGLVPAGGSLRLSCAASGFTFTRYVMGWYRQAPGKERELVAAISGSGGSTNYADSVKGRFTISRDNAKNTVYLQMNSLKPEDTAVYYCAVGYRGWDGYWGQGTQVTVSS | high polyreactivity
40 | QVHLVESRGGLVQAGGSLRLSCAASVFTFRYYAMGWYRQAPGKERELVAAITSDGITNYADSVKGRFTISRDNAKNTVYLQMNSLKPEDTAVYYCAAVGWFYGIRLEYWGQGTQLTVSS | high polyreactivity
41 | QVQLVESGGGLVQAGGSLRLSCAASGRIFVYYVMGWYRQAPGKERELVAAITYSGGSTYYADSVKGRFTISRDNAKNTVYLQMNRLKTEDTAVYYCNKVDAFGIVRLYYWGQGTQVTVSS | low polyreactivity
